From US20180155451A1 (published 2018)
Positions count from the first letter of the chain named. In names and notes the source's numbering stands.

T1: FcγRIIa H (FcγRIIa, allotype with His at position 131), extracellular domain with C-terminal His tag (human, UniProt P12318 34-217)
T1 construct: extracellular domain; Soluble receptor expressed in FreeStyle293 cells and used as the analyte in Biacore; also called FcgRIIa H; FcγRIIa type H; not shown: His tag attached to the C terminus
T1 sequence (looked up): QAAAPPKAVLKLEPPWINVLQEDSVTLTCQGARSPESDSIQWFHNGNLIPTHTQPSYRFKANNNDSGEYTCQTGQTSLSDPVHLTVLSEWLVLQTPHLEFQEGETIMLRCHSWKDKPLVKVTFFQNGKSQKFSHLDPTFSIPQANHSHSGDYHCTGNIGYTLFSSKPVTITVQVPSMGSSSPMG

T2: FcγRIIb (human, UniProt P31994 43-217)
T2 construct: extracellular domain; for crystallography expressed with Kifunesine and trimmed with Endo F1; also called FcgRIIb; FcgR2b; not shown: His tag attached to the C terminus
T2 sequence (looked up): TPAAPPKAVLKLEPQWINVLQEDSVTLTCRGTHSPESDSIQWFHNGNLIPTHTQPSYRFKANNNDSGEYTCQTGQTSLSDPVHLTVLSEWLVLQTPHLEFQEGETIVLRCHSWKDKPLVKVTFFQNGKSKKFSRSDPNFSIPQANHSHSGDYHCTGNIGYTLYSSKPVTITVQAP

B1: GpH7-B3 variant T335_02A/GpL16-k0 (homodimerized antibody, Ho Ab) (antibody, human IgG1, kappa)
heavy: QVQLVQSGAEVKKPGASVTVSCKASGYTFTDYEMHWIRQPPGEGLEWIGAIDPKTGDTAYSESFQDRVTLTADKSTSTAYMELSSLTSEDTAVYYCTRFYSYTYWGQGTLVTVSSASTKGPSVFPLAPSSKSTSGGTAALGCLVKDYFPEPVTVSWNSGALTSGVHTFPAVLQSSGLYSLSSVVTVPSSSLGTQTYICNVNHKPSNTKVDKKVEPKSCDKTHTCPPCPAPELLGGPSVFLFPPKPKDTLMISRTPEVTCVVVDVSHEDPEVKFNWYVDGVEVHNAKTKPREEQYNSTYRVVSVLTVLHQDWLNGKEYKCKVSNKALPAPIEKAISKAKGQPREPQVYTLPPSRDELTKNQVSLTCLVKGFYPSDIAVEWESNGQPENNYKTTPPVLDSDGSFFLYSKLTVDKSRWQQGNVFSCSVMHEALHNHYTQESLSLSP
light: DIVMTQSPLSLPVTPGEPASISCQASESLVHSNRNTYLHWYLQKPGQSPQLLIYKVSNRFSGVPDRFSGSGSGTDFTLKISRVEAEDVGVYYCSQNTHVPPTFGQGTKVEIERTVAAPSVFIFPPSDEQLKSGTASVVCLLNNFYPREAKVQWKVDNALQSGNSQESVTEQDSKDSTYSLSSTLTLSKADYEKHKVYACEVTHQGLSSPVTKSFNRGEC
notes: Anti-glypican-3 IgG1 (G1d with K439E = GpH7-B3); the substitution stands in both H chains; also called Ho Ab T335A
B2: GpH7-B3 variant T335_04F/GpL16-k0 (homodimerized antibody, Ho Ab) (antibody, human IgG1, kappa)
heavy: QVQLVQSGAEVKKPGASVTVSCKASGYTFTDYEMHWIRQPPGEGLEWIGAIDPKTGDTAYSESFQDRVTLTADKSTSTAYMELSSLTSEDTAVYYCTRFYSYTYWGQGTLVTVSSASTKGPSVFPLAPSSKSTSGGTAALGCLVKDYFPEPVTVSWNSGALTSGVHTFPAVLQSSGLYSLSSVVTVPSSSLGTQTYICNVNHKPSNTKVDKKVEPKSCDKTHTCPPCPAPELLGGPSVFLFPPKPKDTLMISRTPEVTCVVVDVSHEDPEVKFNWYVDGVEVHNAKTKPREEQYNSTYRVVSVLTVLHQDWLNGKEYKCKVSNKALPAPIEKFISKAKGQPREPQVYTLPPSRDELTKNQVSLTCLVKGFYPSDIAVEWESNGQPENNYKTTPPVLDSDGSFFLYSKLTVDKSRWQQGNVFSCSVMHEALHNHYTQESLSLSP
light: B1 light
notes: Anti-glypican-3 IgG1 (GpH7-B3 background); substitution in both H chains; Position is EU numbering; also called Ho Ab T335F
B3: GpH7-B3 variant T335_05P/GpL16-k0 (homodimerized antibody, Ho Ab) (antibody, human IgG1, kappa)
heavy: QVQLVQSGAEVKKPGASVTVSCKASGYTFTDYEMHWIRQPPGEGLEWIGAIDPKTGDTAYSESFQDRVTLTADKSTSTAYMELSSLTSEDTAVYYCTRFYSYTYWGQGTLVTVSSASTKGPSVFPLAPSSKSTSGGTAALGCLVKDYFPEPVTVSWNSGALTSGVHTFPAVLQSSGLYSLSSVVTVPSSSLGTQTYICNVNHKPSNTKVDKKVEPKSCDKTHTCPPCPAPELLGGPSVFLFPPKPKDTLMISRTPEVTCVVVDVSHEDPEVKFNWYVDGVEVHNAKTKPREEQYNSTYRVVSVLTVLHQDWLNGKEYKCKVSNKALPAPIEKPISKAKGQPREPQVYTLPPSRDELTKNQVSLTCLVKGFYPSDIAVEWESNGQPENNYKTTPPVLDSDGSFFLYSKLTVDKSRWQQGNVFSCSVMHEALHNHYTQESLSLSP
light: B1 light
notes: Anti-glypican-3 IgG1 (GpH7-B3 background); substitution in both H chains; Position is EU numbering; also called Ho Ab T335P
B4: GpH7-B3 variant T335_06M/GpL16-k0 (homodimerized antibody, Ho Ab) (antibody, human IgG1, kappa)
heavy: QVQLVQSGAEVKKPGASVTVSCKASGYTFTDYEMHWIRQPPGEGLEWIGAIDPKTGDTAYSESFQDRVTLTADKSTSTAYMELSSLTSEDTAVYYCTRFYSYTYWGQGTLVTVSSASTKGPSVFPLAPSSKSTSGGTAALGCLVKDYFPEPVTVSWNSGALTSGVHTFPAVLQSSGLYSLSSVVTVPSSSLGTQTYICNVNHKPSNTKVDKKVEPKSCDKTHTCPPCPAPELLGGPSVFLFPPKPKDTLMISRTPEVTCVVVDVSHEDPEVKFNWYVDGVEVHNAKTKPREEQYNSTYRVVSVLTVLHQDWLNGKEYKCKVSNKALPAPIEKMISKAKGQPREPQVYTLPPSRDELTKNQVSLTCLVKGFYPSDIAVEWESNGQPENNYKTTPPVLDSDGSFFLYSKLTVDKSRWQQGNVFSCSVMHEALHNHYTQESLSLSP
light: B1 light
notes: Anti-glypican-3 IgG1 (GpH7-B3 background); substitution in both H chains; Position is EU numbering; also called Ho Ab T335M
B5: GpH7-B3 variant T335_08L/GpL16-k0 (homodimerized antibody, Ho Ab) (antibody, human IgG1, kappa)
heavy: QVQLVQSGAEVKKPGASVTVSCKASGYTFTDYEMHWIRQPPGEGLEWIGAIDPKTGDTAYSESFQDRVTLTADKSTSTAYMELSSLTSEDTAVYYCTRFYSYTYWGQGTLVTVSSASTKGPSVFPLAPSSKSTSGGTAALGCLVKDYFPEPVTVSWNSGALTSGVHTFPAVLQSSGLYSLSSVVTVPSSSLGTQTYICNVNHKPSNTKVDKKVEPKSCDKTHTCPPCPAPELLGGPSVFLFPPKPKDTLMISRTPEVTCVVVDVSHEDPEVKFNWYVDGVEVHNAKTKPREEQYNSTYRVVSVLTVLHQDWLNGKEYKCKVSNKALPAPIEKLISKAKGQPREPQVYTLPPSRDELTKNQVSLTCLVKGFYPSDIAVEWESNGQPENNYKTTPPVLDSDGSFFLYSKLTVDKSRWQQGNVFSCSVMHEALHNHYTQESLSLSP
light: B1 light
notes: Anti-glypican-3 IgG1 (GpH7-B3 background); substitution in both H chains; Position is EU numbering; also called Ho Ab T335L
B6: GpH7-B3 variant T335_09D/GpL16-k0 (homodimerized antibody, Ho Ab) (antibody, human IgG1, kappa)
heavy: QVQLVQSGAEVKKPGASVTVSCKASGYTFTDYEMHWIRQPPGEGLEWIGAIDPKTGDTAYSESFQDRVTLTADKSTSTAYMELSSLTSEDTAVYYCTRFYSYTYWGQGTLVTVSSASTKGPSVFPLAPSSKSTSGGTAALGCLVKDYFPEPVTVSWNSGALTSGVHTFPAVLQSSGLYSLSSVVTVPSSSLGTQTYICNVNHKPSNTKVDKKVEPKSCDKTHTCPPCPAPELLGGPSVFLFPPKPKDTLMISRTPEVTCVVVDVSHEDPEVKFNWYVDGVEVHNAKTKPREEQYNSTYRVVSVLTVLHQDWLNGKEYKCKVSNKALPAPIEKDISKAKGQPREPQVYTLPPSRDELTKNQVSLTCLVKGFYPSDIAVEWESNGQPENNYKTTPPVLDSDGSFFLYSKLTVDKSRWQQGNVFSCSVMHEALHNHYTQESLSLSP
light: B1 light
notes: Anti-glypican-3 IgG1 (GpH7-B3 background); substitution in both H chains; Position is EU numbering; also called Ho Ab T335D
B7: GpH7-B3 variant Y300_06M/GpL16-k0 (homodimerized antibody, Ho Ab) (antibody, human IgG1, kappa)
heavy: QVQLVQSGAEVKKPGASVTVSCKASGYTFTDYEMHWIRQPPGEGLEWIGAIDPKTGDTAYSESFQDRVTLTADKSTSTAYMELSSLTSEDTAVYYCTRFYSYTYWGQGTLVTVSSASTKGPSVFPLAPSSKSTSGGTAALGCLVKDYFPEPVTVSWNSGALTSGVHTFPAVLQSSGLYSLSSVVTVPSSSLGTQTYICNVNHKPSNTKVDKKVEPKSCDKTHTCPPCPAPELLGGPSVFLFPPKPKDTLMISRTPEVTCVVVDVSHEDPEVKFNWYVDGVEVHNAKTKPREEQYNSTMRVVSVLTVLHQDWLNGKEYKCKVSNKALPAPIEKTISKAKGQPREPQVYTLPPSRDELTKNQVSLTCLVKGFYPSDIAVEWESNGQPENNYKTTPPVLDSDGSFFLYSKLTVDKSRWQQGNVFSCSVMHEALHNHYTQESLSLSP
light: B1 light
notes: Anti-glypican-3 IgG1 (GpH7-B3 background); substitution in both H chains; Position is EU numbering; also called Ho Ab Y300M
B8: GpH7-B3 variant Y300_07I/GpL16-k0 (homodimerized antibody, Ho Ab) (antibody, human IgG1, kappa)
heavy: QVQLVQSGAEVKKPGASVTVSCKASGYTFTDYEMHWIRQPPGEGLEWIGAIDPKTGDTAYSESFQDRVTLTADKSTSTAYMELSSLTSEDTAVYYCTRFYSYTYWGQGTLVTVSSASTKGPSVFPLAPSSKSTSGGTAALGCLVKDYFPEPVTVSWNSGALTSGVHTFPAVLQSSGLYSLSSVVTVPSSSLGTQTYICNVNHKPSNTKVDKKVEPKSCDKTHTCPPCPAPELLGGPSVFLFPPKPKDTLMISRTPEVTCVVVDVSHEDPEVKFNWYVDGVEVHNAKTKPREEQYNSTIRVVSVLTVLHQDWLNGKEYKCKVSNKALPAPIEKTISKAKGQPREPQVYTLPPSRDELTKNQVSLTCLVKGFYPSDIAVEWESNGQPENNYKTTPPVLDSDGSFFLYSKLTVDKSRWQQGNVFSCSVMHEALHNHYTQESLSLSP
light: B1 light
notes: Anti-glypican-3 IgG1 (GpH7-B3 background); substitution in both H chains; Position is EU numbering; also called Ho Ab Y300I
B9: GpH7-B3 variant Y300_08L/GpL16-k0 (homodimerized antibody, Ho Ab) (antibody, human IgG1, kappa)
heavy: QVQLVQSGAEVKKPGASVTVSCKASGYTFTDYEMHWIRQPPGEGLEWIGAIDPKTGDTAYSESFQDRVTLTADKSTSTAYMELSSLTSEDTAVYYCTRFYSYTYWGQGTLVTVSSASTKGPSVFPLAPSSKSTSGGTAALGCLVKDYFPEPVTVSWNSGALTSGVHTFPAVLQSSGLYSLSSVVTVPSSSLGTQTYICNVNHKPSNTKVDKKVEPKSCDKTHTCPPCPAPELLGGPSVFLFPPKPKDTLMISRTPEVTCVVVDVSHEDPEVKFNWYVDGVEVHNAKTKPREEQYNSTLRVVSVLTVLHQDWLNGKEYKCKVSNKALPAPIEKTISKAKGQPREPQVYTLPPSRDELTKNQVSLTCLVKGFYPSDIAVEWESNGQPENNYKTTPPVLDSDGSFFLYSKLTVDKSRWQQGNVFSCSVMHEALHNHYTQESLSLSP
light: B1 light
notes: Anti-glypican-3 IgG1 (GpH7-B3 background); substitution in both H chains; Position is EU numbering; also called Ho Ab Y300L
B10: GpH7-A26/GpH7-B3/GpL16-k0 (antibody, human IgG1, kappa)
heavy 1: QVQLVQSGAEVKKPGASVTVSCKASGYTFTDYEMHWIRQPPGEGLEWIGAIDPKTGDTAYSESFQDRVTLTADKSTSTAYMELSSLTSEDTAVYYCTRFYSYTYWGQGTLVTVSSASTKGPSVFPLAPSSKSTSGGTAALGCLVKDYFPEPVTVSWNSGALTSGVHTFPAVLQSSGLYSLSSVVTVPSSSLGTQTYICNVNHKPSNTKVDKKVEPKSCDKTHTCPPCPAPELLGAPSVFLFPPKPKDTLMISRTPEVTCVVVDVSHEDPEVKFNWYVDGVEVHNAKTKPREEQYNSTYRVVSVLTVLHQDWLNGKEYKCKVSNKALPAPIEKTISKAKGQPREPQVYTLPPSRKELTKNQVSLTCLVKGFYPSDIAVEWESNGQPENNYKTTPPVLDSDGSFFLYSKLTVDKSRWQQGNVFSCSVMHEALHNRYTQKSLSLSP
heavy 2: not shown
light: B1 light
notes: G237A in one H chain
B11: GpH7-A29/GpH7-B3/GpL16-k0 (antibody, human IgG1, kappa)
heavy 1: B10 heavy 1 with A235L
heavy 2: not shown
light: B1 light
notes: G237L in one H chain
B12: GpH7-A42/GpH7-B3/GpL16-k0 (antibody, human IgG1, kappa)
heavy 1: B10 heavy 1 with A235G, L326E
heavy 2: not shown
light: B1 light
notes: L328E in one H chain
B13: GpH7-A43/GpH7-B3/GpL16-k0 (antibody, human IgG1, kappa)
heavy 1: B10 heavy 1 with A235G, L326D
heavy 2: not shown
light: B1 light
notes: L328D in one H chain
B14: GpH7-A26/GpL16-k0 (antibody, human IgG1, kappa)
heavy: B10 heavy 1
light: B1 light
notes: G237A in both H chains

target: T1, FcγRIIa H (FcγRIIa, allotype with His …); test: SPR (Biacore T100), antibody captured on antigen-peptide chip, FcγRIIa H as analyte; response per captured antibody relative to GpH7-B3/GpL16-k0
Protocol: (§1) Analysis of interaction between objective antibody and the FcγR was carried out using Biacore T100 (GE Healthcare). HBS-EP+ (GE Healthcare) was used as the running buffer, and the measurement temperature was set to 25° C. Chips produced by immobilizing the antigen peptide by the amine coupling method to a Series S Sencor Chip CM5 (GE Healthcare), or alternatively, chips produced by allowing preliminarily biotinylated antigen peptides to interact with and immobilize onto a Series S Sensor Chip SA (certified) (GE Healthcare) were used. Antibodies of interest were captured onto an antigen peptide-immobilized chip, and allowed to interact to each FcγR diluted with running buffer. To regenerate and repeatedly use the chip, the antibodies captured on the chip were washed off by reacting 10 mM glycine-HCl, pH 1.5.

Ho/Con_2aH	Binder
103 relative binding activity (control homodimerized antibody GpH7-B3/GpL16-k0 = 100)	B1
104 relative binding activity (control homodimerized antibody GpH7-B3/GpL16-k0 = 100)	B2
115 relative binding activity (control homodimerized antibody GpH7-B3/GpL16-k0 = 100)	B3
106 relative binding activity (control homodimerized antibody GpH7-B3/GpL16-k0 = 100)	B4
106 relative binding activity (control homodimerized antibody GpH7-B3/GpL16-k0 = 100)	B5
110 relative binding activity (control homodimerized antibody GpH7-B3/GpL16-k0 = 100)	B6
106 relative binding activity (control homodimerized antibody GpH7-B3/GpL16-k0 = 100)	B7
122 relative binding activity (control homodimerized antibody GpH7-B3/GpL16-k0 = 100)	B8
115 relative binding activity (control homodimerized antibody GpH7-B3/GpL16-k0 = 100)	B9

target: T2, FcγRIIb; test: SPR (Biacore), relative binding
Description: The constructed expression vectors were each combined with GpH7-A5 and GpL16-k0 to express heterodimerized antibodies, or they were combined with GpL16-k0 alone but not with other H chains to express homodimerized antibodies. These antibodies were expressed and purified according to the method described in Reference Example 1. The resulting purified antibodies are the following: the heterodimerized antibodies GpH7-A5/GpH7-B12/GpL16-k0, GpH7-A5/GpH7-B13/GpL16-k0, GpH7-A5/GpH7-B14/GpL16-k0, and GpH7-A5/GpH7-B15/GpL16-k0; and homodimerized antibodies GpH7-B12/GpL16-k0, GpH7-B13/GpL16-k0, GpH7-B14/GpL16-k0, and GpH7-B15/GpL16-k0. The prepared antibodies were used to assess the binding activity to each FcγR by the method described in Reference Example 2.
as §1

binding result	Binder
binds	B10
binds	B11
binds	B12
binds	B13
binds	B14
